Patent US20060257406A1 (published 2006)
One block for each binder: values may come before it.

Key:
human TNFα [1] = target: T1, human TNFα (human, UniProt P01375 77-233); assay: not stated; printed in the column 'Equilibrium dissocation constant (Kd = Koff/Kon)' of the data summary
T1 construct: also called TAR1; TNF alpha

human TNFα [2] = target: T1, human TNFα; assay: TNF receptor assay (ELISA): inhibition of TNF binding to plate-bound TNF receptor 1-Fc
human TNFα [3] = target: T1, human TNFα; assay: cell-based or functional assay
human TNFα [4] = target: T1, human TNFα; assay: ELISA on 1 ug/ml TNF, 200 nM IgG, anti-Fc-HRP
Protocol: A 96 well plate was coated with 100 ul of INF and TNFRI at 1 ug/ml concentration in PBS overnight at 4 C. 50 ul (200 nM) of IgG was then added to the wells and bound IgG was detected via anti-Fc-HRP.

human TNFα [5] = target: T1, human TNFα; assay: TNF receptor assay (ELISA), fermenter material purified by cation exchange FPLC
human TNFα [6] = target: T1, human TNFα; assay: TNF receptor assay (ELISA): inhibition of TNF binding to plate-bound TNF receptor 1-Fc; remark: listed apart in the source
hen egg lysozyme [7] = target: T2, hen egg lysozyme (hen, UniProt P00698 19-147); assay: ELISA on coated hen egg lysozyme, detection with 9e10 and anti mouse IgG-HRP
T2 construct: also called HEL; HL
T2 sequence (P00698 19-147): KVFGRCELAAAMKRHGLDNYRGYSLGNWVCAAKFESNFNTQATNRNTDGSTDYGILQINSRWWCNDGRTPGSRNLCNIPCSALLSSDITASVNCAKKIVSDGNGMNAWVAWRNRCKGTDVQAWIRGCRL

hen egg lysozyme [8] = target: T2, hen egg lysozyme; assay: selection from a dAb library
mouse serum albumin [9] = target: T3, mouse serum albumin (mouse, UniProt P07724 25-608); assay: inhibition biacore: dAb premixed with MSA, binding to MSA-coated CM5 chip, Klotz plot (estimated Kd)
T3 construct: biotinylated MSA (about 2 biotins per molecule) in the capture ELISA; also called MSA
T3 sequence (P07724 25-608 limits assumed): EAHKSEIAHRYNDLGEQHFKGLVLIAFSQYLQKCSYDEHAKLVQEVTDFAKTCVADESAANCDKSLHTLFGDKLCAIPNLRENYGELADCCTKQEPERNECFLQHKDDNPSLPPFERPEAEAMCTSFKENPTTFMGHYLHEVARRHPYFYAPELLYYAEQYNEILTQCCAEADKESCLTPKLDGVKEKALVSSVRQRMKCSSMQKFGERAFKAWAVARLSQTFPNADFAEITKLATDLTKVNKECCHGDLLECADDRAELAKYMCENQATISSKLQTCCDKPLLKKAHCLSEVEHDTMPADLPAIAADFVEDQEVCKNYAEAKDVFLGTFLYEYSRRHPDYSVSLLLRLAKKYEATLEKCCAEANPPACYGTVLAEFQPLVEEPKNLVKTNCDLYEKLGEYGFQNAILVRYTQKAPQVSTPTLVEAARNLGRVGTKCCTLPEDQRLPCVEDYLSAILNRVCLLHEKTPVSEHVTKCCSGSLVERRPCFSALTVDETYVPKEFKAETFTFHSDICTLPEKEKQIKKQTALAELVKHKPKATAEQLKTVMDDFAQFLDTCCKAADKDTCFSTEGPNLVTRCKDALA
Protocol: The purified dabs were then analysed by inhibition biacore to determine Kd. […] Once the required concentrations of dAb had been determined, MSA antigen at a range of concentrations around the expected Kd was premixed with the dAb and incubated overnight. Binding to the MSA coated biacore chip of dAb in each of the premixes was then measured at a high flow-rate of 30 μl/minute.

mouse serum albumin [10] = target: T3, mouse serum albumin; assay: capture ELISA: dAb on protein L, biotinylated MSA, streptavidin-HRP
Protocol: (§1) Two rounds of selection were performed on serum albumin using each of the libraries separately. For each selection, antigen was coated on immunotube (nunc) in 4 ml of PBS at a concentration of 100 μg/ml. In the first round of selection, each of the three libraries was panned separately against HSA (Sigma) and MSA (Sigma). In the second round of selection, phage from each of the six first round selections was panned against (i) the same antigen again (eg 1st round MSA, 2nd round MSA) and (ii) against the reciprocal antigen (eg 1st round MSA, 2nd round HSA) resulting in a total of twelve 2nd round selections. In each case, after the second round of selection 48 clones were tested for binding to HSA and MSA. Soluble dAb fragments were produced as described for scFv fragments by Harrison et al, Methods Enzymol. 1996; 267:83-109 and standard ELISA protocol was followed (Hoogenboom et al. (1991) Nucleic Acids Res., 19: 4133) except that 2% tween PBS was used as a blocking buffer and bound dabs were detected with either protein LHRP (Sigma) (for the Vκs) and protein A—HRP (Amersham Pharmacia Biotech) (for the VHs).
Next, the serum albumin binding dAbs were tested for their ability to capture biotinylated antigen from solution. ELISA protocol (as above) was followed except that ELISA plate was coated with 1 μg/ml protein L (for the Vκ clones) and 1 μg/ml protein A (for the VH clones). Soluble dAb was captured from solution as in the protocol and detection was with biotinylated MSA or HSA and streptavidin HRP. The biotinylated MSA and HSA had been prepared according to the manufacturer's instructions, with the aim of achieving an average of 2 biotins per serum albumin molecule. […] Next, the dAbs were tested for their ability to bind MSA coated on a CM5 biacore chip.

human serum albumin = target: T4, human serum albumin (human, UniProt P02768 25-609); assay: capture ELISA: dAb on protein L, biotinylated HSA, streptavidin-HRP
T4 construct: also called HSA
Protocol: as §1
Next, the serum albumin binding dAbs were tested for their ability to capture biotinylated antigen from solution. ELISA protocol (as above) was followed except that ELISA plate was coated with 1 μg/ml protein L (for the Vκ clones) and 1 μg/ml protein A (for the VH clones). […]

human TNFα [11] = target: T1, human TNFα; assay: TNF receptor assay (ELISA): inhibition of TNF binding to plate-bound TNF receptor 1-Fc; remark: listed apart in the source

T1 sequence (P01375 77-233 limits assumed): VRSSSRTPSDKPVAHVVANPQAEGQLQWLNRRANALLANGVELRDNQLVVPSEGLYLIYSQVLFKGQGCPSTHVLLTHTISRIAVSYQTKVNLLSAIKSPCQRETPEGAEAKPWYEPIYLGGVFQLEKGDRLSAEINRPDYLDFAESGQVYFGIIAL

B2: TAR1/TAR2 IgG (bispecific antibody, V domains shown)
VH: EVQLLESGGGLVQPGGSLRLSCAASGFTFEWYWMGWVRQAPGKGLEWVSAISGSGGSTYYADSVKGRFTISRDNSKNTLYLQMNSLRAEDAAVYYCAKVKLGGGPNFGYRGQGTLVTVSS
VL: DIQMTQSPSSLSASVGDRVTITCRASQSIDSYLHWYQQKPGKAPKLLIYSASELQSGVPSRFSGSGSGTDFTLTISSLQPEDFATYYCQQVVWRPFTFGQGTKVEIKR
notes: expressed in COS7 cells with CD33 or IgG κ leader, purified on Protein A; also called the IgG; not shown: IgG1 heavy chain constant region (CH1 from the CH vector; hinge, CH2 and CH3 from the pigplus vector); light chain kappa constant region (CK domain from the CK vector)
- binding result (human TNFα [4]): binds

B3: TAR1-5-19d4 (other)
chain: DIQMTQSPSSLSASVGDRVTITCRASQSIDSYLHWYQQKPGKAPKLLIYSASELQSGVPSRFSGSGSGTDFTLTISSLQPEDFATYYCQQVVWRPFTFGQGTKVEIKRGGGGSGGGGSGGGGSGGGGSGGGGSDIQMTQSPSSLSASVGDRVTITCRASQSVKEFLWWYQQKPGKAPKLLIYMASNLQSGVPSRFSGSGSGTDFTLTISSLQPEDFATYYCQQKFKLPRTFGQGTKVEIK
- IC50 (human TNFα [5]): 8 nM
- IC50 (human TNFα [6]): 2 to 5 nM
- ND50 in the cell assay (human TNFα [3]): ~5 nM

B4: VH CH/VH Cκ dual specific Fab like fragment (HEL4 CH, TAR2-5 Cκ) (Fab, V domains shown, not shown: a dimerising Fc or GST; small tags and cut ends)
V domain 1: EVQLLESGGGLVQPGGSLRLSCAASGFRISDEDMGWVRQAPGKGLEWVSSIYGPSGSTYYADSVKGRFTISRDNSKNTLYLQMNSLRAEDTAVYYCASALEPLSEPLGFWGQGTLVTVSS
V domain 2: EVQLLESGGGLVQPGGSLRLSCAASGFTFDLYNMFWVRQAPGKGLEWVSFISQTGRLTWYADSVKGRFTISRDNSKNTLYLQMNSLRAEDTAVYYCAKTLEDFDYWGQGTLVTVSS
- ELISA signal (hen egg lysozyme [7]): 0.154

B5: HEL4 (other)
VH: EVQLLESGGGLVQPGGSLRLSCAASGFRISDEDMGWVRQAPGKGLEWVSSIYGPSGSTYYADSVKGRFTISRDNSKNTLYLQMNSLRAEDTAVYYCASALEPLSEPLGFWGQGTLVTVSS
notes: also called VH dAb HEL4; anti-hen egg white lysozyme dAb
- binding result (hen egg lysozyme [8]): binds

B7: MSA16 (other)
VL: DIQMTQSPSSLSASVGDRVTITCRASQSIIKHLKWYQQKPGKAPKLLIYGASRLQSGVPSRFSGSGSGTDFTLTISSLQPEDFATYYCQQGARWPQTFGQGTKVEIK
notes: also called 21; dAb MSA16
- Kd (mouse serum albumin [9]): 200 nM

B11: trimeric TAR1-5-19CYS (other)
chain: DIQMTQSPSSLSASVGDRVTITCRASQSIDSYLHWYQQKPGKAPKLLIYSASELQSGVPSRFSGSGSGTDFTLTISSLQPEDFATYYCQQVVWRPFTFGQGTKVEIKRC
modifications: C-terminal Cys coupled to TMEA (Tris[2-maleimidoethyl]amine)
notes: also called the trimer; TAR1-5-19 homotrimer
- IC50 (human TNFα [11]): 0.3 nM

Continued, values first:

- Kd (human TNFα [1]): 30 nM
- IC50 (human TNFα [2]): 30 nM
- ND50 in the cell assay (human TNFα [3]): ~30 nM
B1: TAR1-5-19 dAb monomer (other)
VL: DIQMTQSPSSLSASVGDRVTITCRASQSIDSYLHWYQQKPGKAPKLLIYSASELQSGVPSRFSGSGSGTDFTLTISSLQPEDFATYYCQQVVWRPFTFGQGTKVEIKR
notes: also called TAR1-5-19 monomer; TAR1-5-19 Vκ dAb

- ELISA signal (hen egg lysozyme [7]): 0.069
B6: VH Cκ chain expressed alone (protein, not shown: a dimerising Fc or GST; small tags and cut ends)
VH: EVQLLESGGGLVQPGGSLRLSCAASGFTFDLYNMFWVRQAPGKGLEWVSFISQTGRLTWYADSVKGRFTISRDNSKNTLYLQMNSLRAEDTAVYYCAKTLEDFDYWGQGTLVTVSS

- binding result (mouse serum albumin [10]): binds
- binding result (human serum albumin): binds
B8: anti-serum albumin Vκ dAb clones 38, 54 (other)
VL: DIQMTQSPSSLSASVGDRVTITCRASQSISSYLNWYQQKPGKAPKLLIYRASPLQSGVPSRFSGSGSGTDFTLTISSLQPEDFATYYCQQTYRIPPTFGQGTKVEIK

- binding result (mouse serum albumin [10]): binds
- binding result (human serum albumin): binds
B9: anti-serum albumin Vκ dAb clones 2, 4, 7, 41 (other)
VL: DIQMTQSPSSLSASVGDRVTITCRASQSISSYLNWYQQKPGKAPKLLIYRASPLQSGVPSRFSGSGSGTDFTLTISSLQPEDFATYYCQQTYSVPPTFGQGTKVEIK

- Kd (mouse serum albumin [9]): 70 nM
B10: MSA26 (other)
VL: DIQMTQSPSSLSASVGDRVTITCRASQSIYYHLKWYQQKPGKAPKLLIYKASTLQSGVPSRFSGSGSGTDFTLTISSLQPEDFATYYCQQVRKVPRTFGQGTKVEIK
notes: also called 25; dAb MSA26
